# T1: DFNB31_1, Q9P202
# T1 sequence (Q9P202 135-233, limits assumed, looked up): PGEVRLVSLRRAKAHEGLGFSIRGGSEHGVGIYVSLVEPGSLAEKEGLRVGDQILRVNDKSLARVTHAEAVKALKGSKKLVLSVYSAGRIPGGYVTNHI
# T2: TX1BP3, O14907
# T2 sequence (O14907 10-122, limits assumed, looked up): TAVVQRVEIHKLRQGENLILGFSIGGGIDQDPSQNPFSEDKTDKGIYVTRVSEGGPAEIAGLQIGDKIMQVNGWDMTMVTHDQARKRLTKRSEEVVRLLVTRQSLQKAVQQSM
# T3: PDZRN3_1, Q9UPQ7
# T3 sequence (Q9UPQ7 244-349, limits assumed, looked up): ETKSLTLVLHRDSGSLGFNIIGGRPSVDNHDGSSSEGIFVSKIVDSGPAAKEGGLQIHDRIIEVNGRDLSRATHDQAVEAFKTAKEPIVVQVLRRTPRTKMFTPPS
# T4: APBA3_1, O96018
# T4 sequence (O96018 389-490, limits assumed, looked up): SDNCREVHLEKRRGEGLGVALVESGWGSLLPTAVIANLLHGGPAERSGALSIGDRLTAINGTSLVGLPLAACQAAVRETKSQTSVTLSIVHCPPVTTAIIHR
# T5: GRIP1_5, Q9Y3R0
# T5 sequence (Q9Y3R0 568-668, limits assumed, looked up): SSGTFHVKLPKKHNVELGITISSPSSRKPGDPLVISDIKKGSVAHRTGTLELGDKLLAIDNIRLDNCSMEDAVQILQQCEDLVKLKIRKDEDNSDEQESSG
# T6: GRIP1_3, Q9Y3R0
# T6 sequence (Q9Y3R0 247-346, limits assumed, looked up): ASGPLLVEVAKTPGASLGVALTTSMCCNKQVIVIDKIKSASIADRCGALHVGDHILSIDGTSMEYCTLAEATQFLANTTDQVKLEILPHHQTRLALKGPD
# T7: RADIL, Q96JH8
# T7 sequence (Q96JH8 971-1071, limits assumed, looked up): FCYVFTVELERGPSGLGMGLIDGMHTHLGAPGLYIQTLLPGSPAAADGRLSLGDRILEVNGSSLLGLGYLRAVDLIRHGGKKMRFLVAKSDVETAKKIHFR
# T8: SNTB1, Q13884
# T8 sequence (Q13884 107-205, limits assumed, looked up): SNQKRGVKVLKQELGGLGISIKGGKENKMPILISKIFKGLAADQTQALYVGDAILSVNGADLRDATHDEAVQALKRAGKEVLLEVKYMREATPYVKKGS
# Key:
# Assay in all cases: holdup assay
# Set-up in all cases: key: below the threshold = too weak to quantify, mostly under pKd 3.1 to 4
# Conditions in all cases: plain residues with an end cap or a label only (N-terminal biotin on a linker: ado-ado)
# [1] = target: MAGI2_5, Q86UL8
# MAGI2_5, Q86UL8, sequence (Q86UL8 915-1017): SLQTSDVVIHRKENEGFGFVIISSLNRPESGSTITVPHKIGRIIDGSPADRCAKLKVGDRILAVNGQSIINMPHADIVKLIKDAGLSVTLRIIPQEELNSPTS
# [2] = target: Inadl_1, Q8NI35
# Inadl_1, Q8NI35, sequence (Q8NI35 113-229): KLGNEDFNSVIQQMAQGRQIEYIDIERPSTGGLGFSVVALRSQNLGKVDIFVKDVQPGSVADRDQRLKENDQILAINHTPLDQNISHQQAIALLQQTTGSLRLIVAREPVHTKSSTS
# [3] = target: SNX27, Q96L92
# [4] = target: LNX1_2, Q8TBB1
# LNX1_2, Q8TBB1, sequence (Q8TBB1 371-470): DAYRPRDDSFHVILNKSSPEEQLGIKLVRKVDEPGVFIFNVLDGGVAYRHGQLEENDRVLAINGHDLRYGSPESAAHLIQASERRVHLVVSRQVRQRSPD
# [5] = target: T1, DFNB31_1, Q9P202
# [6] = target: T2, TX1BP3, O14907
# [7] = target: IL16_4, Q14005
# IL16_4, Q14005, sequence (Q14005 1229-1329): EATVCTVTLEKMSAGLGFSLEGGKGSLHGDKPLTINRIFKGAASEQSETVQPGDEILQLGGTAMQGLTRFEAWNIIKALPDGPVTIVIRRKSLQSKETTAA
# [8] = target: T3, PDZRN3_1, Q9UPQ7
# [9] = target: GRIP2_4, Q9C0E4
# GRIP2_4, Q9C0E4, sequence (Q9C0E4 446-548): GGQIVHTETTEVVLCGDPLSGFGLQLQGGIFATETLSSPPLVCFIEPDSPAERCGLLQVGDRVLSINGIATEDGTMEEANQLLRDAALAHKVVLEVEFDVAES
# [10] = target: MAGI1_2, Q96QZ7
# MAGI1_2, Q96QZ7, sequence (Q96QZ7 456-580): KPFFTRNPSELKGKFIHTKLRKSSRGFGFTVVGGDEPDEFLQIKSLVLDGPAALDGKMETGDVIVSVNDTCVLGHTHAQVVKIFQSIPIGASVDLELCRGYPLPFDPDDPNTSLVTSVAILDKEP
# [11] = target: Inadl_6, Q8NI35
# Inadl_6, Q8NI35, sequence (Q8NI35 1058-1167): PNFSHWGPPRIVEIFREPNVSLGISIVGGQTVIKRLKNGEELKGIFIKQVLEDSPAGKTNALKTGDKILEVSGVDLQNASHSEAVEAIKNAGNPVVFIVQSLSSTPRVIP
# [12] = target: DLG5_1, Q8TDM6
# DLG5_1, Q8TDM6, sequence (Q8TDM6 617-713): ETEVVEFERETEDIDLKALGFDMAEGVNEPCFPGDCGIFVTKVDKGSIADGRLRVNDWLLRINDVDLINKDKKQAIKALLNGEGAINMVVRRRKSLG
# [13] = target: T4, APBA3_1, O96018
# [14] = target: PDZRN4_1, Q6ZMN7
# PDZRN4_1, Q6ZMN7, sequence (Q6ZMN7 213-318): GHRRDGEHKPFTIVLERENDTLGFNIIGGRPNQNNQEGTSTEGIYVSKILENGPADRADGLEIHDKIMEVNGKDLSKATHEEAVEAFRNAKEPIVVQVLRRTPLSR
# [15] = target: SCRIB_3, Q14160
# SCRIB_3, Q14160, sequence (Q14160 999-1103): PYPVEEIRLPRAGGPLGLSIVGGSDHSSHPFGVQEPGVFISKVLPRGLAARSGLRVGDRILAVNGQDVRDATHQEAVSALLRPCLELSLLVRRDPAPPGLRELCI
# [16] = target: MAGI2_6, Q86UL8
# MAGI2_6, Q86UL8, sequence (Q86UL8 1141-1229): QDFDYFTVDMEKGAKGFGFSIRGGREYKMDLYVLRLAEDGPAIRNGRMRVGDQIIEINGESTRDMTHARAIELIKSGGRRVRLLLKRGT
# [17] = target: GIPC2, Q8TF65
# GIPC2, Q8TF65, sequence (Q8TF65 112-203): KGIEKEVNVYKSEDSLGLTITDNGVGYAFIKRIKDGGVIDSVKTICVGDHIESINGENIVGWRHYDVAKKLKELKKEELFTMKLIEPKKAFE
# [18] = target: T5, GRIP1_5, Q9Y3R0
# [19] = target: GRIP2_7, Q9C0E4
# GRIP2_7, Q9C0E4, sequence (Q9C0E4 934-1023): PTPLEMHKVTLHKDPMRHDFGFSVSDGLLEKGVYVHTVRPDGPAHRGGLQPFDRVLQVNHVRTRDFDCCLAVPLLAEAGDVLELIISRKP
# [20] = target: T6, GRIP1_3, Q9Y3R0
# [21] = target: T7, RADIL, Q96JH8
# [22] = target: DLG4_3, P78352
# DLG4_3, P78352, sequence (P78352 306-403): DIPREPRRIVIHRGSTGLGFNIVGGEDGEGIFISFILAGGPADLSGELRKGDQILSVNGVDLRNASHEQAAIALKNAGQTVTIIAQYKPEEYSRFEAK
# [23] = target: T8, SNTB1, Q13884
# [24] = target: LNX1_1, Q8TBB1
# LNX1_1, Q8TBB1, sequence (Q8TBB1 261-371): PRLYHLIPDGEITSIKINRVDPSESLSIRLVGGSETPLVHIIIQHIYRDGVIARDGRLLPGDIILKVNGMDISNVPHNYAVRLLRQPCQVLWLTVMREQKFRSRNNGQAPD
# [25] = target: FRMPD4, Q14CM0
# FRMPD4, Q14CM0, sequence (Q14CM0 67-160): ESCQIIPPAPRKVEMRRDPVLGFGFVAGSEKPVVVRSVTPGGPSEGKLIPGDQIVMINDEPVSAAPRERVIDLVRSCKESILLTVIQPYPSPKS
# [26] = target: GORASP1, Q9BQQ3
# GORASP1, Q9BQQ3, sequence (Q9BQQ3 1-208): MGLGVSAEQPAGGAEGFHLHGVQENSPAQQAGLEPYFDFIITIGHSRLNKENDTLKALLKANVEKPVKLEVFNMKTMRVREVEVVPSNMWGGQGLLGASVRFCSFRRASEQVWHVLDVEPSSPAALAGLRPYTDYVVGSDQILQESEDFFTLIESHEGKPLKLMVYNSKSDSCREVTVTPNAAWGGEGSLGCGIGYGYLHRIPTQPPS
# [27] = target: PICK1, Q9NRD5
# PICK1, Q9NRD5, sequence (Q9NRD5 17-115): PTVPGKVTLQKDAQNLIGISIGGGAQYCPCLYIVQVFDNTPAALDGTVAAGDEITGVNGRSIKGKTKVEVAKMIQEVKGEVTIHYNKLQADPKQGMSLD
# [28] = target: LNX1_3, Q8TBB1
# LNX1_3, Q8TBB1, sequence (Q8TBB1 500-596): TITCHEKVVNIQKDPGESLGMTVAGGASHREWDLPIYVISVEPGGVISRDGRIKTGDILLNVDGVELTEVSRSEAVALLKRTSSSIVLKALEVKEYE
# [29] = target: MAGI1_1, Q96QZ7
# MAGI1_1, Q96QZ7, sequence (Q96QZ7 1-106): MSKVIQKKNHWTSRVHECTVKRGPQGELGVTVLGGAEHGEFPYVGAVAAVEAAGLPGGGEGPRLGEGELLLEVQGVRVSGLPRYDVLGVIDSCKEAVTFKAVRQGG
Binder,pKd [1],pKd [2],pKd [3],pKd [4],pKd [5],pKd [6],pKd [7],pKd [8],pKd [9],pKd [10],pKd [11],pKd [12],pKd [13],pKd [14],pKd [15],pKd [16],pKd [17],pKd [18],pKd [19],pKd [20],further results
"PSVYSRSQYV [CLDN8, P56748]",below the threshold,below the threshold,3.75,3.7,below the threshold,below the threshold,below the threshold,below the threshold,below the threshold,below the threshold,below the threshold,below the threshold,below the threshold,below the threshold,below the threshold,below the threshold,below the threshold,below the threshold,3.51,below the threshold,pKd [21]: 5.17; pKd [22]: below the threshold; pKd [23]: below the threshold; pKd [24]: below the threshold; pKd [25]: below the threshold; pKd [26]: 4.55; pKd [27]: below the threshold; pKd [28]: below the threshold; pKd [29]: below the threshold
"NKSEPFLTWL [WWTR1, Q9GZV5]",3.94,4.52,5.02,below the threshold,3.85,4.49,below the threshold,3.76,below the threshold,3.51,5.68,below the threshold,3.5,4.27,5.14,4.9,below the threshold,below the threshold,4.21,below the threshold,pKd [21]: 5.57; pKd [22]: below the threshold; pKd [23]: 3.79; pKd [24]: 4.13; pKd [25]: 5.15; pKd [26]: 5; pKd [27]: below the threshold; pKd [28]: below the threshold; pKd [29]: 3.69
"QLGSPTADLA [SIPA1, Q96FS4]",below the threshold,below the threshold,below the threshold,below the threshold,below the threshold,below the threshold,below the threshold,below the threshold,below the threshold,below the threshold,below the threshold,below the threshold,below the threshold,below the threshold,below the threshold,below the threshold,below the threshold,below the threshold,below the threshold,below the threshold,pKd [21]: below the threshold; pKd [22]: below the threshold; pKd [23]: below the threshold; pKd [24]: below the threshold; pKd [25]: below the threshold; pKd [26]: below the threshold; pKd [27]: below the threshold; pKd [28]: below the threshold; pKd [29]: below the threshold
"GDSSRKEYFI [GYPC, P04921]",below the threshold,4.12,below the threshold,below the threshold,below the threshold,below the threshold,below the threshold,below the threshold,below the threshold,below the threshold,3.54,below the threshold,below the threshold,below the threshold,4.13,below the threshold,below the threshold,below the threshold,5.33,below the threshold,pKd [21]: 4.43; pKd [22]: below the threshold; pKd [23]: below the threshold; pKd [24]: below the threshold; pKd [25]: below the threshold; pKd [26]: 4.33; pKd [27]: below the threshold; pKd [28]: below the threshold; pKd [29]: below the threshold
"RGKNRRQSIF [CDK18, Q07002]",below the threshold,below the threshold,below the threshold,below the threshold,below the threshold,below the threshold,below the threshold,below the threshold,below the threshold,3.91,below the threshold,below the threshold,below the threshold,below the threshold,3.65,below the threshold,below the threshold,below the threshold,below the threshold,below the threshold,pKd [21]: below the threshold; pKd [22]: 3.7; pKd [23]: below the threshold; pKd [24]: 3.95; pKd [25]: 3.65; pKd [26]: below the threshold; pKd [27]: 4.17; pKd [28]: below the threshold; pKd [29]: below the threshold
